Molecular target: T1, tropomyosin alpha-4 chain (Homo sapiens, UniProt P67936)
T1 construct: Tropomyosin alpha-4 chain, human, UniProtKB P67936; theoretical mass/pI printed as 28,522 kDa/4.67); Denatured protein on a nitrocellulose membrane; identity rests on MALDI-TOF MS of the excised spot; also called TPM4; TMP4; source: endogenous, pooled protein extracts from OSCC tissues, resolved by 2D gel electrophoresis
Test: far-Western, overlay or dot blot; Western blot of a 2D gel (pH 4-7) of OSCC tissue protein extracts on nitrocellulose, probed with scFv-D09, detected with HRP-conjugated rat anti-HA; the spot was excised from the stained gel and identified by MALDI-TOF MS
Conditions: one partner purified

T1 sequence (P67936 whole entry): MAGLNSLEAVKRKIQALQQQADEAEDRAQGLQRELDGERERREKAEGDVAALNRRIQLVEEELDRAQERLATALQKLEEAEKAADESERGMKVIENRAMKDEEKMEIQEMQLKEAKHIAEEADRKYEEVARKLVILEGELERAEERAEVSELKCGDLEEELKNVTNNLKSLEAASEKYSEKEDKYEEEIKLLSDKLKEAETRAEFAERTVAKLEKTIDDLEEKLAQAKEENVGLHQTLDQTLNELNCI

- binding result: binds
B1: scFv-D09 (scFv, V domains shown)
VH: QVQLQESGPGLVKPSQTLSLTCAVSGGSISSSNWWSWVRQPPGKGLEWIGEIYHSGSTNYNPSLKSRVTISVDKSKNQFSLKLSSVTAADTAVYYCARQSFPGRAFDIWGQGTMVTVSS
VL: EIVMTQSPATLSVSPGERATLSCRASQSVSSNLAWYQQKPGQAPRLLIYGASTRATGIPARFSGSGSGTEFTLTISSLQSEDFAVYYCQHYNNWLWTFGQGTKVEIK
notes: also called scFv D09 antibody; scFv-D09 clone
